The test addresses T1, Hexokinase II (HK-II), purified (UniProt P52789 1-917, fluorescently labeled using the NanoTemper protein-labeling Kit BLUE).
T1 construct: hexokinase II (HK-II)
T1 sequence (looked up): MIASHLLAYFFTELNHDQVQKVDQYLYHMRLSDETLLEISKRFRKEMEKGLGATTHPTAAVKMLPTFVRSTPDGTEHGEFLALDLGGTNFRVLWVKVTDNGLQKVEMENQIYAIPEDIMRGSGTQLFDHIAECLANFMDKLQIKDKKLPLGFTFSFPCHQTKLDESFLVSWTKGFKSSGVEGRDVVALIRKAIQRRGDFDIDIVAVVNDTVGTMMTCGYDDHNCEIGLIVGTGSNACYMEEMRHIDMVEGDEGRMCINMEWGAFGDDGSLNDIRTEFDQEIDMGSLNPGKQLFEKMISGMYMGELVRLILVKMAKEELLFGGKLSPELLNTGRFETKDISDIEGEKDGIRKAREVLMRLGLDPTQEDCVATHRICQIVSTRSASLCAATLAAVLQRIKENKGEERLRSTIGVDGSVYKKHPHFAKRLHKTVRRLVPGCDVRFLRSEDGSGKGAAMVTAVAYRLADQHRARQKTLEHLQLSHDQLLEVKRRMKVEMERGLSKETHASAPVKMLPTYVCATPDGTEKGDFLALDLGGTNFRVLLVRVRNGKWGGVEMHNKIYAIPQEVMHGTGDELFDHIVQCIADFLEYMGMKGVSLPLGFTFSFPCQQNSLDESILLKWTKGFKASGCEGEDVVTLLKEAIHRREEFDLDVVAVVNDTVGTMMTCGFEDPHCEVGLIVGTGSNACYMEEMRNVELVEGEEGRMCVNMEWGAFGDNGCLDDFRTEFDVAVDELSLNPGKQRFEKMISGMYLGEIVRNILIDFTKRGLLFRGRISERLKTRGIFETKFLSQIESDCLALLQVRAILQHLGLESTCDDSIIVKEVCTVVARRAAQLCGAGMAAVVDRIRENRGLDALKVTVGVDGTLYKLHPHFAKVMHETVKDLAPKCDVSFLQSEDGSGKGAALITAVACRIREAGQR
As to the kind of experiment: MST; HK-II (100 nM), fluorescently labelled (NanoTemper Kit BLUE), incubated with Tf-D-LP4 (1-100 μM) for 20 min; MST-grade glass capillaries, Monolith-NT115. To be noted: both partners purified.

Non-standard residues stand in square brackets, D forms with d. No end group written: not given here.

B1: Tf-D-LP4 (peptide)
peptide: HAIYPRHSWTWE[dK][dK][dL][dE][dT][dA][dV][dN][dL][dA][dW][dT][dA]G[dN][dS][dN]KWTWK
notes: L-amino acids; amino acids added to form a loop-shaped tryptophan zipper (N-terminal half); amino acids added to form a loop-shaped tryptophan zipper (C-terminal half); 34 residues in all; the VDAC1-derived stretch is made of D-amino acids, the rest of L-amino acids; also called VDAC1-based peptide; Tf-D-LP4 peptide; source: synthetic peptide (GL Biochem, Shanghai, >95% purity), dissolved in DMSO
Molecule B1 yielded a Kd of 16.6 µM.

One may read the Kd as the concentration at which binding is half-saturated. Higher therefore signals weaker binding.

The values are drawn from article PMC5458211, “Mitochondrial VDAC1-based peptides: Attacking oncogenic properties in glioblastoma” (Oncotarget, 2017).
